The values that follow come from article doi:10.1101/2023.02.11.528153.

This data set has as its target MERS-CoV spike RBD fragment (human betacoronavirus 2c EMC/2012 …, UniProt K0BRG7 367-606). In words: MST.

In the case of ACATAGGCGTT (ssDNA) [Labeled complementary strand], the binding result is “no binding”.
